The text below walks through data of PMC2883556 (PLoS ONE, 2010).

Assay [1] deals with T1, BoNT/B GST-fusion peptide fragment H1 (Clostridium botulinum strain Okra / …, UniProt B1INP5).
T1 construct: not shown: GST, N-terminal, kept
Kind of assay: ELISA. The conditions noted are these: one partner purified. A general note: An ELISA detects its analyte on a solid surface through an enzyme-linked reagent.

For assay [2], the target named is T2, Botulinum neurotoxin serotype C (Clostridium botulinum, UniProt P18640).
T2 construct: source: bought: Metabiologics
Kind of assay: ELISA. The conditions noted are these: both partners purified.

Assay [3] addresses T3, BoNT/B GST-fusion peptide fragment L1 (Clostridium botulinum strain Okra / …, UniProt B1INP5).
T3 construct: not shown: GST, N-terminal, kept
Kind of assay: ELISA. The settings on record: one partner purified.

For assay [4], the target named is T4, BoNT/B GST-fusion peptide fragment Lc (Clostridium botulinum Okra / Type B1, UniProt B1INP5).
T4 construct: not shown: GST, N-terminal, kept
Briefly: ELISA. The settings on record: one partner purified.

In assay [5] the target is T5, Botulinum neurotoxin serotype D (Clostridium botulinum, UniProt P19321).
T5 construct: source: bought: Metabiologics
Kind of assay: ELISA. The settings on record: both partners purified.

In assay [6] the target is T6, BoNT/B GST-fusion peptide fragment H3 (Clostridium botulinum strain Okra / …, UniProt B1INP5).
T6 construct: Cloned in pGS-21a; not shown: GST, N-terminal, kept
Kind of assay: ELISA. The conditions noted are these: one partner purified.

Assay [7] deals with T7, BoNT/B GST-fusion peptide fragment L2 (Clostridium botulinum strain Okra / …, UniProt B1INP5).
T7 construct: Cloned in pGS-21a; not shown: GST, N-terminal, kept
Briefly: ELISA. The settings on record: one partner purified.

The target of assay [8] is T8, BoNT/B GST-fusion peptide fragment H4 (Clostridium botulinum strain Okra / …, UniProt B1INP5).
T8 construct: not shown: GST, N-terminal, kept
Briefly: ELISA. The conditions noted are these: one partner purified.

For assay [9], the target named is T9, BoNT/B GST-fusion peptide fragment H2 (Clostridium botulinum strain Okra / …, UniProt B1INP5).
T9 construct: not shown: GST, N-terminal, kept
Kind of assay: ELISA. The conditions noted are these: one partner purified.

Assay [10] concerns the target T10, BoNT/B GST-fusion peptide fragment Hc (Clostridium botulinum strain Okra / …, UniProt B1INP5).
T10 construct: Cloned in pGS-21a; not shown: GST, N-terminal, kept
Briefly: ELISA. The settings on record: one partner purified.

Assay [11] concerns the target T11, BoNT/B GST-fusion peptide fragment H5 (Clostridium botulinum Okra / Type B1, UniProt B1INP5).
T11 construct: Cloned in pGS-21a; not shown: GST, N-terminal, kept
Briefly: ELISA. The conditions noted are these: one partner purified.

In assay [12] the target is T6, BoNT/B GST-fusion peptide fragment H3. Briefly: ELISA. The settings on record: one partner purified. This is another data set of the same source.
In assay [13] the target is BoNT/B heavy chain (band of the reduced holotoxin) (Clostridium botulinum Okra / Type B1, UniProt B1INP5). Briefly: far-Western, overlay or dot blot. The conditions noted are these: both partners purified.

B1: monoclonal antibody MCS6-27 (antibody, V domains shown)
VH: EVQLEQSGPGLVKPSQSLSLTCTVTGYSITNDYAWNWIRQFPGNKLEWMGYINYSGTTSYNPSLKSRISITRDTSKNQFFLQFNSVTTEDTATYYCARSPLAYWGQGTLVTVSA
VL: DIVLTQTPASLSVSVGETVTITCRASENIYSHLAWYQQKQGKSPQLLVYTATNLADGVPSRFSGRGSGTQYSLKINSLQSEDFGIYFCQHFWGTPWTFGGGTKLEIK
notes: also called mAb MCS6-27
Regarding B1, the binding result was “no binding” in assay [1]; “no binding (tested: 10 µg/mL)” in assay [2]; “no binding” in assay [3]; “no binding” in assay [4]; “no binding (tested: 10 µg/mL)” in [5]; “no binding” in assay [6]. Also, the binding result in [7] is recorded as “no binding”; in assay [8] it was “no binding”; in assay [9], “no binding”; in [10], “binds”; in assay [11], “binds”.

B2: monoclonal antibody F29-40 (antibody, V domains shown)
VH: EVQLEESGPELVKPGTSVKISCKASGYSFTGYIINWVMQSQGKTPEWIGRINPNNGDTSYNQKFKGKATLTVDRSSSTAHMEVRSLTSEDSAVYYCARTGFGYWGQGTLVTVSA
VL: DIVITQTPASLAVSLGQRATISCRASESINYYGTNLLQWYQQKPGQPPKLLIYAASNVESGVPARFSGSGSGTDFSLNIHPVEEDDIAMYFCQQSRKVPFTFGSGTRLEIK
notes: also called mAb F29-40
As to B2, the binding result in assay [1] was “no binding”; in [2] it was “no binding (tested: 10 µg/mL)”; in assay [3] it was “no binding”; in [4] it was “no binding”; in assay [5] it was “no binding (tested: 10 µg/mL)”; in [7] it was “no binding”. Moreover, the binding result in assay [8] is given as “no binding”; in assay [9], “no binding”; in [10], “binds”; in assay [11], “binds”; in assay [12], “binds”; in assay [13], “binds”.
